{"source": "paper PMC4591102", "about": "(European journal of nuclear medicine and molecular imaging, 2015)", "key": {"integrin αvβ3": {"target": "integrin αvβ3 (Homo sapiens, UniProt P05106+P06756)", "experiment": "Competitive cell binding assay with ^125I-echistatin in U87MG cells"}, "[1]": {"experiment": "Metabolic stability in urine by radio-HPLC", "assay_type": "in vivo, ICR mice"}, "[2]": {"experiment": "Longitudinal static PET with ROI analysis in U87MG tumor-bearing mice", "set-up": "species or system athymic nude mice", "details": "mouse, in vivo"}, "[3]": {"experiment": "Serum stability by radio-HPLC", "assay_type": "in vitro ADME, mouse"}, "[4]": {"experiment": "Octanol-water partition coefficient", "assay_type": "physicochemical"}, "Dynamic PET": {"experiment": "Dynamic PET", "set-up": "species or system athymic nude mice", "details": "mouse, in vivo; for half-life: iv"}, "[5]": {"experiment": "Ex vivo biodistribution at 4 h p.i.", "set-up": "species or system athymic nude mice", "details": "mouse, in vivo"}, "[6]": {"details": "mouse, U87MG tumor, 10 mg/kg"}, "in vivo": {"experiment": "in vivo", "details": "both, athymic nude, mouse, tumor, 10 mg/kg, total radioactivity"}}, "note": "Read-outs that look alike come from different tables or passages of the source.", "data": [{"compound": "N=C(N)NCCC[C@@H]1NC(=O)[C@H](CCCCNC(=S)Nc2ccc(CC3CN(CC(=O)O)CCN(CC(=O)O)CCN3CC(=O)O)cc2)NC(=O)[C@@H](Cc2ccccc2)NC(=O)[C@H](CC(=O)O)NC(=O)CNC1=O", "note": "(stereo partly drawn) [NOTA-c(RGDfK)]", "values": [{"measurement": "IC50", "setting": "integrin αvβ3", "result": "507 ± 62", "unit": "nM"}]}, {"compound": "N=C(N)NCCC[C@@H]1NC(=O)[C@H](CCCCNC(=O)COCCOCCNC(=O)COCCOCCNC(=S)Nc2ccc(C[C@H]3CN(CC(=O)O)CCN(CC(=O)O)CCN3CC(=O)O)cc2)NC(=O)[C@@H](Cc2ccccc2)NC(=O)[C@H](CC(=O)O)NC(=O)CNC1=O", "note": "[^64Cu-NOTA-(PEG)2-c(RGDfK), metal not drawn]", "values": [{"measurement": "radioactive metabolites in urine", "setting": "[1]; mouse, in vivo", "result": "not observed"}, {"measurement": "tissue uptake at 0.5 h", "setting": "[2]", "result": "3.62 ± 0.21", "unit": "%ID/g"}, {"measurement": "fraction remaining intact in serum", "setting": "[3]; mouse, serum, 4 h", "result": "> 95", "unit": "%"}, {"measurement": "logP", "setting": "[4]", "result": "-2.82 ± 0.06"}, {"measurement": "tissue uptake", "setting": "Dynamic PET", "result": "~4", "unit": "%ID/g"}, {"measurement": "half-life", "setting": "Dynamic PET", "result": 4.76, "unit": "min"}, {"measurement": "tissue uptake at 4 h", "setting": "[5]", "result": "2.36 ± 0.31", "unit": "%ID/g"}]}, {"compound": "N=C(N)NCCC[C@@H]1NC(=O)[C@H](CCCCNC(=O)[C@H]2O[C@@H](CNC(=O)[C@H]3O[C@@H](CNC(=O)[C@H]4O[C@@H](CNC(=O)[C@H]5O[C@@H](CNC(=O)CCOCCOCCOCCOCCNC(=S)Nc6ccc(C[C@H]7CN(CC(=O)O)CCN(CC(=O)O)CCN7CC(=O)O)cc6)[C@H](O)[C@@H](O)[C@H]5O)[C@H](O)[C@@H](O)[C@H]4O)[C@H](O)[C@@H](O)[C@H]3O)[C@H](O)[C@@H](O)[C@H]2O)NC(=O)[C@@H](Cc2ccccc2)NC(=O)[C@H](CC(=O)O)NC(=O)CNC1=O", "note": "[^64Cu-NOTA-PEG4-SAA4-c(RGDfK), metal not drawn]", "values": [{"measurement": "radioactive metabolites in urine", "setting": "[1]; urine collected 1 h after administration", "result": "not observed"}, {"measurement": "tissue uptake at 0.5 h", "setting": "[6]", "result": "0.42 ± 0.14", "unit": "%ID/g"}, {"measurement": "tissue uptake at 2 h", "setting": "[6]", "result": "0.24 ± 0.06", "unit": "%ID/g"}, {"measurement": "tissue uptake at 4 h", "setting": "[6]", "result": "0.18 ± 0.03", "unit": "%ID/g"}, {"measurement": "tissue uptake at 0.5 h", "setting": "[2]; 5.5 MBq, U87MG tumor uptake, PET, 0.5 h p.i.", "result": "2.5 ± 0.18", "unit": "%ID/g"}, {"measurement": "tissue uptake at 2 h", "setting": "[2]; 5.5 MBq, U87MG tumor uptake, PET, 2 h p.i., n = 3", "result": "1.77 ± 0.38", "unit": "%ID/g"}, {"measurement": "tissue uptake at 4 h", "setting": "[2]; 5.5 MBq, U87MG tumor uptake, PET, 4 h p.i., n = 3", "result": "1.67 ± 0.38", "unit": "%ID/g"}, {"measurement": "fraction remaining intact in serum", "setting": "[3]; 1 or 4 h incubation in mouse serum at 37°C", "result": "> 95", "unit": "%"}, {"measurement": "logP", "setting": "[4]", "result": "-3.4 ± 0.05"}, {"measurement": "tissue uptake", "setting": "in vivo", "result": 10, "unit": "%ID/g"}, {"measurement": "tissue uptake", "setting": "Dynamic PET; 5.5 MBq", "result": "~4", "unit": "%ID/g"}, {"measurement": "half-life", "setting": "Dynamic PET; 5.5 MBq", "result": 4.07, "unit": "min"}, {"measurement": "tissue uptake at 4 h", "setting": "[5]; 10 mg/kg, kidney uptake, ex vivo, with blocking, 4 h p.i., blocking group, c(RGDyK) 10 mg/kg", "result": "1.78 ± 1.04", "unit": "%ID/g"}, {"measurement": "tissue uptake at 4 h", "setting": "[5]; 5.5 MBq, U87MG tumor uptake, ex vivo, 4 h p.i., γ-counter", "result": "1.14 ± 0.26", "unit": "%ID/g"}, {"measurement": "tissue uptake at 4 h", "setting": "[5]; 5.5 MBq, kidney uptake, ex vivo, 4 h p.i., positive (unblocked) group", "result": "0.96 ± 0.12", "unit": "%ID/g"}]}, {"compound": "N=C(N)NCCC[C@@H]1NC(=O)[C@H](CCCCNC(=S)Nc2ccc(CC3CN(CC(=O)O)CCN(CC(=O)O)CCN3CC(=O)O)cc2)NC(=O)[C@@H](Cc2ccccc2)NC(=O)[C@H](CC(=O)O)NC(=O)CNC1=O", "note": "(stereo partly drawn) [^64Cu-NOTA-c(RGDfK), metal not drawn]", "values": [{"measurement": "tissue uptake at 0.5 h", "setting": "[2]", "result": "4.78 ± 0.74", "unit": "%ID/g"}, {"measurement": "logP", "setting": "[4]", "result": "-2.65 ± 0.01"}, {"measurement": "half-life", "setting": "Dynamic PET", "result": 2.56, "unit": "min"}, {"measurement": "tissue uptake at 4 h", "setting": "[5]", "result": "2.98 ± 0.52", "unit": "%ID/g"}]}]}
